Experimental data reported in article PMC4932549, “Feasibility of Multiple Examinations Using ^68Ga-Labelled Collagelin Analogues: Organ Distribution in Rat for Extrapolation to Human Organ and Whole-Body Radiation Dosimetry” (Pharmaceuticals, 2016).
Positions of bridges follow the written chain, without caps; N, C: chain ends. Residues, ends and D or L forms follow the SMILES beside them. *: point of attachment. NODAGA = O=C(O)CN1CCN(CC(=O)O)CCN(C(CCC(=O)*)C(=O)O)CC1; NOTA = O=C(O)CN1CCN(CC(=O)O)CCN(CC(=O)*)CC1; AEEA = NCCOCCOCC(=O)O

Assays:
in vivo = settings: rat; for SUV / SUV at 2 h: both sexes, Sprague-Dawley, total radioactivity; for SUV / SUV at 2 h / Uptake in most of the organs (SUV): iv; for SUV at 2 h: Uptake within 120 min in blood, heart, lung, pancreas, adrenal gland, small intestine, large intestine, testis, muscle and brain (SUV)
Protocol: Animal studies were performed using healthy female and male Sprague–Dawley rats: one male and one female animal per time point and tracer (Table 1). The animal experiments were approved by the local Ethics Committee for Animal Research and performed in accordance with local institutional and Swedish national rules and regulations. The animals were kept at a constant temperature (20 °C) and humidity (50%) in a 12-h light-dark cycle and given free access to food and water.
(§1) [^68Ga]Ga-NO2A-Col or [^68Ga]Ga-NODAGA-Col was injected into the tail vein of rats as a bolus with 500 µL phosphate-buffered saline (pH 7.4) as the vehicle (Table 1). The injected amount of the peptides was 0.8 ± 0.2 nanomoles. The animals were euthanized by a CO2–O2 mixture at 5, 10, 20, 40, 60 and 120 min post-injection. The radioactivity of the excised organs was measured in a well-type NaI(Tl) scintillation counter, applying correction for dead-time and radioactivity decay. The weight of the tissues was determined simultaneously. The remaining carcass was also measured in order to monitor the radioactivity elimination and recovery. Samples from blood, heart, lung, liver, spleen, adrenal glands, kidneys, intestines, with or without contents, muscle, testis, bone, brain, pancreas, urine bladder and bone marrow were collected. The radioactivity readings were decay-corrected to the time of the injection, and the results were expressed as standardized uptake values (SUV; Equation (1)), where the radioactivity of an organ and injected radioactivity was expressed in MBq, and the weight of a rat and organ was expressed in g. (1) SUV=Radioactivityorgan×weightrat/Radioactivityinjected×weightorgan

[1] = set-up: species or system human; settings: in vivo
Protocol: Human organ and total body absorbed and effective dose estimates were calculated according to the Medical Internal Radionuclide Dose (MIRD) procedure using the measured residence times and the dose rate S-values. The SUV values in rat were first multiplied with the appropriate radioactivity decay factor dependent on the time point of the data post-injection, then multiplied by standard organ masses and divided by the standard total-body weight for the standard adult man phantom obtained from the OLINDA/EXM 1.1 software (Organ Level Internal Dose Assessment Code, Vanderbilt University, Nashville, TN, USA, 2007). The values obtained correspond to the fraction of injected radioactivity (%IA) per organ in man as a function of time (Equation (2), where SUVA is the SUVs of rat organs; gorgan and kgTBweight are respectively the standard organ weight and standard total body weight of a human). (2) (%IAOrgan)human=SUVA×(gorgan/kgTBweight)human
The cumulative radioactivity for the organs was determined by integrating the area under the time-radioactivity curves for each organ using trapezoidal approximation of the collected kinetic data, followed by extrapolation of remaining points from the last time point to infinity by a single exponential fit. The residence time for each organ is equal to the number of disintegrations (MBq × h/MBq). Bone marrow residence time was assessed according to the bone marrow blood model. The residence time for the remaining carcass was calculated in the same way as for the other organs, and this value was used as input in the OLINDA software as “remainder”. The “remainder” of the body residence time was calculated from SUV due to radioactivity measured in the rest of the body after the removal of the source organs and tail. The difference between the theoretical residence time and the calculated residence time of the source organs plus the remainder of the body was assumed to have been in the tail or excreted. The kidney absorbed dose was calculated based on a multi-region kidney model phantom. The total target organ absorbed dose (D) is contributed by all source organs and is expressed by Equation (3), where Ã is the time-integrated radioactivity in the source tissue (rS) and S is the radionuclide-specific dose rate values: (3) D(rT,t)=∑rSÃ(rS,t)×S(rT←rS,t)
The similarity of the biodistribution pattern in human and rat and the homogeneous distribution of radioactivity throughout the organ were two basic assumptions considered when extrapolating rat biodistribution data to the human species for the calculation of the absorbed and total effective doses. The organ distribution study was conducted for 120 min. The residence time was determined using the trapezoidal rule, wherein the area from the injection time to the termination time was calculated. […] The values were higher for male animals. This is because the residence time is integrated over the entire tissue using the standardized human dosimetry model of organ volumes, where in the human male model, the muscle volume is around 1.65-times higher than that in the female model (28 vs. 17 kg), and the male model blood volume (5.5 L) is almost 1.5 larger than in the female model (3.8 L). The other tissues are also larger in the male model, but to a lesser extent. During the calculation of the absorbed dose in each tissue (mSv/MBq) by OLINDA, the values are again divided with each tissue’s volume, providing final dose values.
Absorbed doses and total effective doses were calculated using residence time values as the input into OLINDA/EXM 1.1, the MIRD scheme of an adult (70 kg) and recommended tissue weighting factors from the International Commission on Radiological Protection (ICRP, 2007). The absorbed doses (mGy/MBq) and total effective doses (mSv/MBq) obtained from OLINDA/EXM 1.1 calculations are presented in Table 2. […]

[2] = rat, in vivo, iv
Protocol: as §1, with “SUV=Radioactivityorgan×weightrat/Radioactivityinjected×weightorgan […]” for “SUV=Radioactivityorgan×weightrat/Radioactivityinjected×weightorgan”

[3] = Uptake in most of the vital organs, including heart and lung (SUV)
[4] = Uptake in small and large intestines (SUV)

SMILES	SUV (in vivo; Kidney uptake (SUV)) [SUV]	SUV (in vivo; [3]) [SUV]	SUV (in vivo; [4]) [SUV]	SUV (in vivo; Uptake in the brain (SUV)) [SUV]	SUV at 2 h (in vivo) [SUV]	Uptake in most of the organs (SUV) (in vivo)	Effective dose per administration [1]	Estimated absorbed dose, Breasts [1] [mGy/MBq]	Estimated absorbed dose, Uterus [1] [mGy/MBq]	Highest organ absorbed dose (kidneys) [1] [mGy/MBq]	Kidney absorbed dose as share of maximum allowed dose of 50 mGy to a single organ [1]	PET examinations per year before reaching the red marrow limiting dose [1]	Radioactivity before reaching the red marrow limiting dose [1]	Radioactivity that could be administered per year if limited by kidney dose [1]	Total dose per examination (PET plus CT) [1]	Share of radioactivity accounted for by the single exponential blood clearance phase [2]	further results
CSCC[C@@H]1NC(=O)[C@H](C(C)C)NC(=O)[C@H](CCCNC(=N)N)NC(=O)CNC(=O)[C@@H]2CCCN2C(=O)[C@@H](NC(=O)COCCOCCNC(=O)CN2CCN(CC(=O)O)CCN(CC(=O)O)CC2)CSSC[C@@H](C(=O)O)NC(=O)[C@@H]2CCCN2C(=O)CNC(=O)[C@H](CCC(=O)O)NC(=O)[C@H](CC(=O)O)NC(=O)[C@H](CC(=O)O)NC(=O)CNC(=O)[C@H](CC(C)C)NC(=O)[C@H](Cc2c[nH]cn2)NC(=O)[C@H](CC(C)C)NC(=O)CNC(=O)[C@H](Cc2c[nH]cn2)NC1=O [[^68Ga]Ga-NO2A-Col, metal not drawn] ({NOTA-AEEA}-CPGRVMHGLHLGDDEGPC-OH; disulfide 1-18)	> 10	< 0.5	< 0.1	< 0.01	< 0.1	below one	0.78–1.64 mSv	0.016	0.019	0.1	about 20%	over 1000	over 200 GBq	over 1460 MBq	1.78–2.64	over 98%	Absorbed dose in liver and spleen relative to [^68Ga]Ga-NODAGA-Col [1]: two-fold lower; Estimated absorbed dose, Adrenals [1]: 0.009 mGy/MBq
CSCC[C@@H]1NC(=O)[C@H](C(C)C)NC(=O)[C@H](CCCNC(=N)N)NC(=O)CNC(=O)[C@@H]2CCCN2C(=O)[C@@H](NC(=O)COCCOCCNC(=O)CCC(C(=O)O)N2CCN(CC(=O)O)CCN(CC(=O)O)CC2)CSSC[C@@H](C(=O)O)NC(=O)[C@@H]2CCCN2C(=O)CNC(=O)[C@H](CCC(=O)O)NC(=O)[C@H](CC(=O)O)NC(=O)[C@H](CC(=O)O)NC(=O)CNC(=O)[C@H](CC(C)C)NC(=O)[C@H](Cc2c[nH]cn2)NC(=O)[C@H](CC(C)C)NC(=O)CNC(=O)[C@H](Cc2c[nH]cn2)NC1=O (some centres unmarked) [[^68Ga]Ga-NODAGA-Col, metal not drawn] ({NODAGA-AEEA}-CPGRVMHGLHLGDDEGPC-OH; disulfide 1-18)	> 10	< 0.5	< 0.1	< 0.01	< 0.1	below one	0.78–1.64 mSv	0.016	0.019	0.1	~21%	over 1000	over 200 GBq	over 1460 MBq	1.78–2.64	over 98%	Radioactivity that stayed in liver and spleen (in vivo): Over 85%; Estimated absorbed dose, Brain [1]: 0.002 mGy/MBq; Estimated absorbed dose, Spleen [1]: 0.011 mGy/MBq; Increase of liver residence time/absorbed dose versus [^68Ga]Ga-NO2A-Col [1]: 100%
